1 protein from patent US20100129815 can be followed below.

Data set [1] deals with T1, GST-MLC2v fusion protein, P08733.
T1 chain: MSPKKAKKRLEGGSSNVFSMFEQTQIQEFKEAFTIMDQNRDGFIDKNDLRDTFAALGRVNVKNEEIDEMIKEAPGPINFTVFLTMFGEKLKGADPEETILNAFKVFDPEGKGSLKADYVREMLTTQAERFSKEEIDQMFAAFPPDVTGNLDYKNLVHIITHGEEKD

For data set [2], the target named is T2, GST-MLC2a fusion protein, Q9QVP4.
T2 chain: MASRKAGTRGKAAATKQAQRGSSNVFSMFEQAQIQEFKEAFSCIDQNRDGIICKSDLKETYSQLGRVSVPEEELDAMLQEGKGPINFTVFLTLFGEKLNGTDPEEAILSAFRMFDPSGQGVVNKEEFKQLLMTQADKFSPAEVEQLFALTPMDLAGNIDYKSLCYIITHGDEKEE

B1: HA-tagged full length cardiac MLCK (protein)
chain: MYPYDVPDYASGVSEEDPEGLAPQGLPALGGACLATMDKKLNVLTEKVDRLLHFQEDVTEKLQCVCQGMDHLEQDLHRLEASRELSLAGSGSTPPTTAQAAWPEVLELVRAVRQEGAQHGARLEALFKMVVAVDRAITLVGSTFQNSKVADFIMQGTVPGRKGSLADGPEENKEQAEVAGVKPNHVLTTGGVQADASRTLWEESQKEDIPVRTVEGLPLIINTSLKGADLTQAGASLRQGVEVLGPGQVPLPTEAESRLPETASENTGATLELSVAIDRISEVLTSLKMSQGGGQETSSSKPDCWLSEEAMRLSSGPLPQPLGPLTPDSDIHSGDALPRIPINMQEMATPGELLETQSGSPIGSAEAPGLGTVLEDQIPKGARPFPPLPKRSSNNGGMSAEEEIGSGAEPMRGPSLATRDWRDETVGTTDLQQGIDPGAVSPEPGKDHAAQGPGRTEAGRLSSAAEAAIVVLDDSAAPPAPFEHRVVSIKDTLISAGYTVSQHEVLGGGRFGQVHRCTERSTGLALAAKIIKVKNVKDREDVKNEVNIMNQLSHVNLIQLYDAFESKSSFTLIMEYVDGGELFDRITDEKYHLTELDVVLFTRQICEGVHYLHQHYILHLDLKPENILCVSQTGHQIKIIDFGLARRYKPREKLKVNFGTPEFLAPEVVNYEFVSFPTDMWSVGVITYMLLSGLSPFLGETDAETMNFIVNCSWDFDADTFKGLSEEAKDFVSRLLVKEKSCRMSATQCLKHEWLSHLPAKASGSNVRLRSQQLLQKYMAQSKWKKHFHVVTAVNRLRKFPTCP
With B1, in data set [1], the “Km (Lineweaver-Burk plot, 32P incorporation into GST-MLC2v; with Ca2+/calmodulin)” value is on record as 3.9±1.2 (with Ca^2+/calmodulin); the “Km (Lineweaver-Burk plot, 32P incorporation into GST-MLC2v; with EGTA)” value is recorded as 2.9±0.8 (with EGTA); the “Km (Lineweaver-Burk plot, 32P incorporation into GST-MLC2v; without EGTA and Ca2+/calmodulin)” value is reported as “Km value of 4.3±1.5 µM”; the “in vitro kinase assay, incorporation of 32P” value is “promotes incorporation of ^32P to GST-MLC2v and GST-MLC2a fusion proteins”. Moreover, the “in vitro kinase assay, incorporation of 32P” value in data set [2] was “promotes incorporation of ^32P to GST-MLC2v and GST-MLC2a fusion proteins”.
